Laboratory results published in the supplement of paper PMC7125110.
± gives the standard error. Variants at the floor of the assay were thinned out.

B1: glmS ribozyme (parent)
chain: AUAAAAGCGCCAGAACUACAGAAAUGUAGUUGACGAGGAGGAGGUUUAUCGAAUUUUCGGCGGAUGCCUCCAAA

Assays:
Settings in all cases: with glucosamine-6-phosphate
[1] = variants of: B1; experiment: self-cleavage kobs at 40 uM GlcN6P; higher = faster cleavage; RNA array
Summary of the method: (§1)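 Barcoded ribozyme variants on sequenced MiSeq chips were transcribed in situ by E. coli RNA polymerase and followed at 37 °C through a hybridised Cy3 probe. Glucosamine-6-phosphate at 40 μM to 10 mM in HEPES/KCl/Mg(OAc)2 buffer was flowed in, and tiles were imaged over ~14 h. Signals were normalised to baseline and to non-cleaving reference variants, and per-tile medians were fit to one- or two-exponential decays to give kobs. Weighted Michaelis–Menten fits across concentrations gave kcat and KM.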

[2] = variants of: B1; experiment: self-cleavage kobs at 160 uM GlcN6P; higher = faster cleavage; RNA array
Summary of the method: as §1

[3] = variants of: B1; experiment: self-cleavage kobs at 2500 uM GlcN6P; higher = faster cleavage; RNA array
Summary of the method: as §1

[4] = variants of: B1; experiment: self-cleavage kobs at 10000 uM GlcN6P; higher = faster cleavage; RNA array
Summary of the method: as §1

[5] = variants of: B1; experiment: self-cleavage kobs at 640 uM GlcN6P; higher = faster cleavage; RNA array
Summary of the method: as §1

Variant | self-cleavage kobs at 40 uM GlcN6P [1] | self-cleavage kobs at 160 uM GlcN6P [2] | self-cleavage kobs at 2500 uM GlcN6P [3] | self-cleavage kobs at 10000 uM GlcN6P [4] | self-cleavage kobs at 640 uM GlcN6P [5]
G60C G62U | < 1e-05 s⁻¹ | < 1e-05 s⁻¹ | < 1e-05 s⁻¹ | < 1e-05 s⁻¹ | 
U69C C71A | 5.28e-05 ± 2.1e-05 s⁻¹ | 0.000113 ± 1.9e-05 s⁻¹ | 0.000478 ± 9.3e-05 s⁻¹ |  | 0.000587 ± 8.4e-05 s⁻¹
G7U G38A G40A G62A |  | < 1e-05 s⁻¹ | < 1e-05 s⁻¹ |  | < 1e-05 s⁻¹
A6C G40A A52G C67U |  | < 1e-05 s⁻¹ | < 1e-05 s⁻¹ |  | < 1e-05 s⁻¹
G59U G62U C71U | < 1e-05 s⁻¹ |  |  |  | 
G7A G37A A39G G40U U49A G59A |  | < 1e-05 s⁻¹ | < 1e-05 s⁻¹ |  | 
C68G C71G | 2.7e-05 ± 1.3e-05 s⁻¹ | 7.77e-05 ± 1.5e-05 s⁻¹ | 9.89e-05 ± 1.7e-05 s⁻¹ |  | 8.75e-05 ± 2.3e-05 s⁻¹
G60A G62C | < 1e-05 s⁻¹ | < 1e-05 s⁻¹ | < 1e-05 s⁻¹ |  | 
G63C U65C | < 1e-05 s⁻¹ |  |  | < 1e-05 s⁻¹ | 
G7C G32C G43U G60U |  | < 1e-05 s⁻¹ | < 1e-05 s⁻¹ | < 1e-05 s⁻¹ | 
G7U G35A G59C |  | < 1e-05 s⁻¹ | < 1e-05 s⁻¹ |  | 
G7C A36G A39C |  | < 1e-05 s⁻¹ |  |  | < 1e-05 s⁻¹
C8U C10A G62A |  | < 1e-05 s⁻¹ |  |  | < 1e-05 s⁻¹
G7A U31C G60U |  | < 1e-05 s⁻¹ | < 1e-05 s⁻¹ |  | 
C8A C11U C50G A53U G63A |  | 0.00012 ± 2.8e-05 s⁻¹ | 9.63e-05 ± 3.3e-05 s⁻¹ |  | 0.000594 ± 0.00015 s⁻¹
G7A C10A C16G G29A A42U G51U C61U |  | < 1e-05 s⁻¹ | < 1e-05 s⁻¹ | < 1e-05 s⁻¹ | 
G7U C16G U30G G59A U69G |  | < 1e-05 s⁻¹ |  |  | 
G7A G37C A64G |  | < 1e-05 s⁻¹ |  |  | 
C8G A12C A36C G59A |  | < 1e-05 s⁻¹ | < 1e-05 s⁻¹ |  | 
U65A U69C | 5.26e-05 ± 1.5e-05 s⁻¹ |  | 0.00117 ± 0.00044 s⁻¹ | 0.000843 ± 0.00023 s⁻¹ | 0.00019 ± 8.3e-05 s⁻¹
A6C G66C |  | < 1e-05 s⁻¹ |  |  | < 1e-05 s⁻¹
A6C G66U |  | < 1e-05 s⁻¹ | < 1e-05 s⁻¹ |  | < 1e-05 s⁻¹
G62U G63U | < 1e-05 s⁻¹ | < 1e-05 s⁻¹ | < 1e-05 s⁻¹ | < 1e-05 s⁻¹ | 
G60A C61G | < 1e-05 s⁻¹ |  | < 1e-05 s⁻¹ | < 1e-05 s⁻¹ | 

Variant | self-cleavage kobs at 40 uM GlcN6P [1] | self-cleavage kobs at 160 uM GlcN6P [2] | self-cleavage kobs at 2500 uM GlcN6P [3] | self-cleavage kobs at 10000 uM GlcN6P [4] | self-cleavage kobs at 640 uM GlcN6P [5]
A6C C10G A36C U49C A53U A64U |  | < 1e-05 s⁻¹ |  |  | 
G63U A64G | < 1e-05 s⁻¹ | < 1e-05 s⁻¹ |  | < 1e-05 s⁻¹ | < 1e-05 s⁻¹
G60U C61U | < 1e-05 s⁻¹ |  |  | < 1e-05 s⁻¹ | < 1e-05 s⁻¹
A64C G66C | < 1e-05 s⁻¹ | < 1e-05 s⁻¹ |  |  | < 1e-05 s⁻¹
G7U C10G G13U A15U A39G |  | < 1e-05 s⁻¹ | < 1e-05 s⁻¹ |  | < 1e-05 s⁻¹
C8G C16A G35U |  | < 1e-05 s⁻¹ | < 1e-05 s⁻¹ |  | 
C8A C16A U47C C58G |  | < 1e-05 s⁻¹ |  |  | < 1e-05 s⁻¹
G59U G60U | < 1e-05 s⁻¹ | < 1e-05 s⁻¹ | < 1e-05 s⁻¹ |  | < 1e-05 s⁻¹
G59U G60C | < 1e-05 s⁻¹ |  |  | < 1e-05 s⁻¹ | < 1e-05 s⁻¹
A6C G37C U65A |  | < 1e-05 s⁻¹ | < 1e-05 s⁻¹ |  | < 1e-05 s⁻¹
C8G U57G |  | < 1e-05 s⁻¹ | < 1e-05 s⁻¹ |  | < 1e-05 s⁻¹
C8A G9U G32A G51A |  | < 1e-05 s⁻¹ |  |  | 
G7U C16U |  | < 1e-05 s⁻¹ |  |  | 
C61A A64C C71A | < 1e-05 s⁻¹ |  |  | < 1e-05 s⁻¹ | 
C8G C16U G35U C50G C70U |  | 0.000117 ± 2.9e-05 s⁻¹ | 8.04e-05 ± 1.8e-05 s⁻¹ |  | 0.000187 ± 5e-05 s⁻¹
G7A U49A |  | < 1e-05 s⁻¹ | < 1e-05 s⁻¹ | < 1e-05 s⁻¹ | < 1e-05 s⁻¹
G7C C8G |  | < 1e-05 s⁻¹ | < 1e-05 s⁻¹ | < 1e-05 s⁻¹ | < 1e-05 s⁻¹
A6G G32U C50G U57G C61A G66U |  | 0.000258 ± 4.1e-05 s⁻¹ | 0.000553 ± 9.8e-05 s⁻¹ | 9.54e-05 ± 1.9e-05 s⁻¹ | 
G7A C8U C16A G43C G44U G63U C68U |  | < 1e-05 s⁻¹ | < 1e-05 s⁻¹ | < 1e-05 s⁻¹ | < 1e-05 s⁻¹
C8A U57C |  | < 1e-05 s⁻¹ | < 1e-05 s⁻¹ |  | < 1e-05 s⁻¹
C8U A39C G44A U56G U65A |  | < 1e-05 s⁻¹ |  |  | 
G7U G51U |  | < 1e-05 s⁻¹ | < 1e-05 s⁻¹ | < 1e-05 s⁻¹ | < 1e-05 s⁻¹
G59C C61U G66U | < 1e-05 s⁻¹ |  |  | < 1e-05 s⁻¹ | 
